# Source: patent publication US12723255B2, “Herbicide tolerance genes and methods of use thereof” (priority 2014, dated 2026)
# B1: MON-HT2: engineered oxygenase protein, amino acid sequence SEQ ID NO:18 (protein)
# chain: MHAALTPLTNKYRFIDVQPLTGVLGAEITGVDLREPLDDSTWNEILDAFHTYQVIYFPGQAITNEQHIAFSRRFGPVDPVPLLKSIEGYPEVQMIRREANESSRVIGDDWHSDSTFLDAPPAAVVMRAIEVPEYGGDTGFLSMYSAWETLSPTMQATIEGLNVVHSATKVFGSLYQATNWRFSNTSVKVMDVDAGDRETVHPLVVTHPVTGRRALYCNQVYCQKIQGMTDAESKSLLQFLYEHATKFDFTCRVRWKKDQVLVWDNLCTMHRAAPDYAGKFRYLTRTTVAGDKPSR
# Experiments:
# F1 hybrid maize plants = assay: trait efficacy field trial, 2,4-D pressure screening, F1 hybrid; assay type: in vivo; details: crop injury percentage; for 4X 2,4-D CIPV4 / 4X 2,4-D CIPV8: 4 lb ae/acre at VE-V2, V4, V8; for 8X 2,4-D CIPV4 / 8X 2,4-D CIPV8: 8 lb ae/acre at VE-V2, V4, V8; for 16X 2,4-D CIPV4 / 16X 2,4-D CIPV8: 16 lb ae/acre at VE-V2, V4, V8
# Description: Separate trait efficacy field trials for quizalofop-P and 2,4-D pressure screening were conducted at one location each with F1 hybrid transgenic plants produced by crossing an inbred plant containing maize event MON89034 with an R1 plant containing MON-HT1, MON-HT2, MON-HT8, MON-HT9, and MON-HT10 with and without operably linked CTP sequences. Transgenic F1 hybrid plants containing maize events NK603×MON89034 were used for comparison as a control.
# Three herbicide treatments were used in the trait efficacy field trial for 2,4-D tolerance: (1) 2,4-D amine at 4 lb ac/acre (4×) plus 0.25% v/v NIS applied to VE-V2 followed by V4 followed by V8; (2) 2,4-D amine at 8 lb ac/acre (8×) plus 0.25% v/v NIS applied to VE-V2 followed by V4followed by V8 maize; or (3) 2,4-D amine at 16 lb ac/acre (16×) plus 0.25% v/v NIS applied to VE-V2 followed by V4 followed by V8. Plots were visually rated as above.
# The injury rating for the control plants after all 2,4-D applications ranged from 80% to 96.25%. At the highest rate of 2,4-D (16×) applied through V8, the plants containing MON-HT1 or MON-HT2 operably linked to any of the three CTPs (A, B, or C) had better tolerance than plants containing MON-HT1 or MON-HT2 not operably linked to a CTP. Plants containing MON-HT1, MON-HT2, or MON-HT8 with or without an operably linked CTP had better tolerance to 2,4-D at all applications tested compared to plants containing either MON-HT9 or MON-HT10 with an operably linked ‘A’ CTP. Over the range of 2,4-D applications the relative ranking of tolerance was: plants containing MON-HT1 had better tolerance than plants containing MON-HT2 which were in turn better than plants containing MON-HT8. […] Error was calculated using LSD (0.05).
# transgenic maize plants = assay: trait efficacy field trials with homozygous inbred plants, CTP evaluation; assay type: in vivo; details: crop injury percentage
# Source text: To evaluate different chloroplast targeting peptides (CTP), plant transformation vectors were constructed, each comprising a recombinant DNA molecule optimized for monocot expression and encoding MON-HTI (SEQ ID NO: 16), MON-HT2 (SEQ ID NO:20), and MON-HT8 (SEQ ID NO:39), MON-HT9 (SEQ ID NO:42), or MON-HT10 (SEQ ID NO:45). The vectors were created using the same combination of promoter, leader, intron, and 3′-UTR, but with one of three separate CTPs (A, B, or C) or without a CTP operably linked to the protein-coding sequence. The DNA constructs were used to transform immature maize (LH244) embryos using Agrobacterium tumifaciens and standard methods known in the art. Regenerated RO transgenic plantlets were grown in the green house. The R0 plants were selfed to generate R1 homozygous seed. The R0 plants were also used as the male to cross with inbred plants containing maize event MON89034 to generate segregating F1 hybrid seed for trait efficacy field trials.
# Separate trait efficacy field trials for quizalofop-P and 2,4-D were conducted at two locations each with the homozygous inbred transgenic plants (R2 or R4 generation). In these field trials, one of two herbicide treatments was used: (1) quizalofop-P (Assure II) at 0.16 lb ai/acre (2×) plus 0.25% v/v non-ionic surfactant (NIS) applied at V4 growth stage followed by the same at V8 growth stage; or (2) 2,4-D amine at 2 lb ae/acre (2×) plus 0.25% v/v non-ionic surfactant (NIS) applied to V4 followed by V8. Injury ratings (crop injury percentage at V4 (CIPV4) or V8 (CIPV8)) were taken 10 to 14 days after the V4 and V8 applications. Error was calculated using LSD (0.05).
# [1] = tested on: mRNA transcribed from the transgene cassette; assay: Quantigene analysis of transgene mRNA expression in leaf samples; details: normalized to maize housekeeping genes, average of eight samples
# Source text: Leaf samples were collected from the plants containing transgene cassettes encoding MON-HT1, MON-HT2, and MON-HT8 with and without CTP sequences to determine expression of the mRNA transcribed from the transgene cassette encoding the engineered proteins. Quantigene® analysis was done on the leaf sample extracts to determine mRNA expression of the transgene cassette. For these assays, the probe was to the common 3′-UTR sequence present in each expression cassette used to generate the transgenic plants. Relative expression was calculated by normalizing to maize housekeeping genes. A leaf sample was collected from each of eight plants for each construct configuration used to make the transgenic plants, and the reported relative mRNA expression data is an average of the eight samples with standard error.
# [2] = assay type: biochemical
# Procedure, shortened: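 Quizalofop-P or 2,4-D was the substrate. All components were pre-heated 5 min at the test temperature, and the reaction was held there throughout. Activity was normalized to 25 °C readings (wild-type enzyme at 25 °C for the in-depth set), and T1/2 is the temperature giving half-maximal activity.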
# [3] = CTP B, 0.16 lb ai/acre at V4, V8
# [4] = CTP C, 0.16 lb ai/acre at V4, V8
# [5] = no CTP, 0.16 lb ai/acre at V4, V8
molecule,measurement,setting,value
B1,"4X 2,4-D CIPV4",F1 hybrid maize plants; CTP A,5
same,"4X 2,4-D CIPV8",F1 hybrid maize plants; CTP A,5
same,"8X 2,4-D CIPV4",F1 hybrid maize plants; CTP A,10
same,"8X 2,4-D CIPV8",F1 hybrid maize plants; CTP A,7.5
same,"16X 2,4-D CIPV4",F1 hybrid maize plants; CTP A,10
same,"16X 2,4-D CIPV8",F1 hybrid maize plants; CTP A,20
same,"4X 2,4-D CIPV4",F1 hybrid maize plants; CTP B,5
same,"4X 2,4-D CIPV8",F1 hybrid maize plants; CTP B,5
same,"8X 2,4-D CIPV4",F1 hybrid maize plants; CTP B,5
same,"8X 2,4-D CIPV8",F1 hybrid maize plants; CTP B,10
same,"16X 2,4-D CIPV4",F1 hybrid maize plants; CTP B,10
same,"16X 2,4-D CIPV8",F1 hybrid maize plants; CTP B,25
same,"4X 2,4-D CIPV4",F1 hybrid maize plants; CTP C,10
same,"4X 2,4-D CIPV8",F1 hybrid maize plants; CTP C,15
same,"8X 2,4-D CIPV4",F1 hybrid maize plants; CTP C,10
same,"8X 2,4-D CIPV8",F1 hybrid maize plants; CTP C,10
same,"16X 2,4-D CIPV4",F1 hybrid maize plants; CTP C,15
same,"16X 2,4-D CIPV8",F1 hybrid maize plants; CTP C,20
same,"4X 2,4-D CIPV4",F1 hybrid maize plants; no CTP,7.5
same,"4X 2,4-D CIPV8",F1 hybrid maize plants; no CTP,7.5
same,"8X 2,4-D CIPV4",F1 hybrid maize plants; no CTP,17.5
same,"8X 2,4-D CIPV8",F1 hybrid maize plants; no CTP,42.5
same,"16X 2,4-D CIPV4",F1 hybrid maize plants; no CTP,25
same,"16X 2,4-D CIPV8",F1 hybrid maize plants; no CTP,45
same,2X Quizalofop-P CIPV4,"transgenic maize plants; CTP A, 0.16 lb ai/acre at V4, V8, LSD (0.05) = 1.45",0
same,2X Quizalofop-P CIPV8,"transgenic maize plants; CTP A, 0.16 lb ai/acre at V4, V8, LSD (0.05) = 2.2",1.875
same,"2X 2,4-D CIPV4","transgenic maize plants; CTP A, 2 lb ae/acre at V4, V8, LSD (0.05) = 0.95",0.875
same,"2X 2,4-D CIPV8","transgenic maize plants; CTP A, 2 lb ae/acre at V4, V8, LSD (0.05) = 1.6",1.25
same,2X Quizalofop-P CIPV4,transgenic maize plants; [3],0
same,2X Quizalofop-P CIPV8,transgenic maize plants; [3],0
same,"2X 2,4-D CIPV4","transgenic maize plants; CTP B, 2 lb ae/acre at V4, V8",0
same,"2X 2,4-D CIPV8","transgenic maize plants; CTP B, 2 lb ae/acre at V4, V8",2.5
same,2X Quizalofop-P CIPV4,transgenic maize plants; [4],0
same,2X Quizalofop-P CIPV8,transgenic maize plants; [4],2
same,"2X 2,4-D CIPV4","transgenic maize plants; CTP C, 2 lb ae/acre at V4, V8",0
same,"2X 2,4-D CIPV8","transgenic maize plants; CTP C, 2 lb ae/acre at V4, V8",1.25
same,2X Quizalofop-P CIPV4,transgenic maize plants; [5],1.25
same,2X Quizalofop-P CIPV8,transgenic maize plants; [5],3.5
same,"2X 2,4-D CIPV4","transgenic maize plants; no CTP, 2 lb ae/acre at V4, V8",0
same,"2X 2,4-D CIPV8","transgenic maize plants; no CTP, 2 lb ae/acre at V4, V8",2.5
same,Relative Expression,[1]; CTP A,6.96
same,Relative Expression,[1]; CTP B,6.16
same,Relative Expression,[1]; CTP C,4.11
same,Relative Expression,[1]; no CTP,4.66
same,"T1/2, temperature at which the enzyme activity was half of maximum",[2],46 °C
same,temperature sensitivity compared with the wild-type enzyme,"[2]; substrate 2,4-D, lower T1/2 than wild-type",slightly more temperature sensitive
